# Experimental data as given in patent US20170182124A1, “FGF21 Derivatives and Uses Thereof” (Novo Nordisk A/S, priority 2014, published 2017).
# Like-named read-outs stand apart in the source and are kept apart here. Marks after values point to notes of the source that are not given here.
# B1: S{Beta-179}-[2-[2-[[2-[2-[2-[[2-[2-[2-[[(4S)-4-carboxy-4-(15-carboxypentadecanoyl-amino)butanoyl]amino]ethoxy]ethoxy]acetyl]amino]ethoxy]ethoxy]acetyl]amino]-ethylamino]-2-oxoethyl]-Ala[Gln121,Leu168, … (protein)
# chain: HPIPDSSPLLQFGGQVRQRYLYTDDAQQTEAHLEIREDGTVGGAADQSPESLLQLKALKPGVIQILGVKTSRFLCQRPDGALYGSLHFDPEACSFRELLLEDGYNVYQSEAHGLPLHLPGQKSPHRDPAPRGPARFLPLPGLPPALPEPPGILAPQPPDVGSSDPLSLVGPSQGRSPSCAS
# B2: S{Beta-180}-[2-[2-[[2-[2-[2-[[2-[2-[2-[[(4S)-4-carboxy-4-(11-carboxyundecanoyl-amino)butanoyl]amino]ethoxy]ethoxy]acetyl]amino]ethoxy]ethoxy]acetyl]amino]-ethylamino]-2-oxoethyl]-Ala[Gln121,Leu168,Cys … (protein)
# chain: HPIPDSSPLLQFGGQVRQRYLYTDDAQQTEAHLEIREDGTVGGAADQSPESLLQLKALKPGVIQILGVKTSRFLCQRPDGALYGSLHFDPEACSFRELLLEDGYNVYQSEAHGLPLHLPGQKSPHRDPAPRGPARFLPLPGLPPALPEPPGILAPQPPDVGSSDPLSLVGPSQGRSPSYCS
# B3: S{Beta-180}-[2-[2-[[2-[2-[2-[[2-[2-[2-[[(4S)-4-carboxy-4-(19-carboxynonadecanoyl-amino)butanoyl]amino]ethoxy]ethoxy]acetyl]amino]ethoxy]ethoxy]acetyl]amino]-ethylamino]-2-oxoethyl]-Ala[Gln121,Leu168,C … (protein)
# chain: HPIPDSSPLLQFGGQVRQRYLYTDDAQQTEAHLEIREDGTVGGAADQSPESLLQLKALKPGVIQILGVKTSRFLCQRPDGALYGSLHFDPEACSFRELLLEDGYNVYQSEAHGLPLHLPGQKSPHRDPAPRGPARFLPLPGLPPALPEPPGILAPQPPDVGSSDPLSLVGPSQGRSPSYCS
# B4: S{Beta-181}-[2-[2-[[2-[2-[2-[[2-[2-[2-[[(4S)-4-carboxy-4-(11-carboxyundecanoyl-amino)butanoyl]amino]ethoxy]ethoxy]acetyl]amino]ethoxy]ethoxy]acetyl]amino]-ethylamino]-2-oxoethyl]-Ala[Gln121,Leu168,Cys … (protein)
# chain: HPIPDSSPLLQFGGQVRQRYLYTDDAQQTEAHLEIREDGTVGGAADQSPESLLQLKALKPGVIQILGVKTSRFLCQRPDGALYGSLHFDPEACSFRELLLEDGYNVYQSEAHGLPLHLPGQKSPHRDPAPRGPARFLPLPGLPPALPEPPGILAPQPPDVGSSDPLSLVGPSQGRSPSYAC
# B5: S{Beta-181}-[2-[2-[[2-[2-[2-[[2-[2-[2-[[(4S)-4-carboxy-4-(17-carboxyheptadecanoyl-amino)butanoyl]amino]ethoxy]ethoxy]acetyl]amino]ethoxy]ethoxy]acetyl]amino]-ethylamino]-2-oxoethyl]-Ala[Gln121,Leu168, … (protein)
# chain: HPIPDSSPLLQFGGQVRQRYLYTDDAQQTEAHLEIREDGTVGGAADQSPESLLQLKALKPGVIQILGVKTSRFLCQRPDGALYGSLHFDPEACSFRELLLEDGYNVYQSEAHGLPLHLPGQKSPHRDPAPRGPARFLPLPGLPPALPEPPGILAPQPPDVGSSDPLSLVGPSQGRSPSYAC
# B6: S{Beta-181}-[2-[2-[[2-[2-[2-[[2-[2-[2-[[(4S)-4-carboxy-4-(19-carboxynonadecanoyl-amino)butanoyl]amino]ethoxy]ethoxy]acetyl]amino]ethoxy]ethoxy]acetyl]amino]-ethylamino]-2-oxoethyl]-Ala[Gln121,Leu168,C … (protein)
# chain: HPIPDSSPLLQFGGQVRQRYLYTDDAQQTEAHLEIREDGTVGGAADQSPESLLQLKALKPGVIQILGVKTSRFLCQRPDGALYGSLHFDPEACSFRELLLEDGYNVYQSEAHGLPLHLPGQKSPHRDPAPRGPARFLPLPGLPPALPEPPGILAPQPPDVGSSDPLSLVGPSQGRSPSYAC
# B7: S{Beta-180}-[2-[2-[[2-[2-[2-[[2-[2-[2-[[(4S)-4-carboxy-4-(17-carboxyheptadecanoyl-amino)butanoyl]amino]ethoxy]ethoxy]acetyl]amino]ethoxy]ethoxy]acetyl]amino]-ethylamino]-2-oxoethyl]-Ala[Gln121,Leu168, … (protein)
# chain: HPIPDSSPLLQFGGQVRQRYLYTDDAQQTEAHLEIREDGTVGGAADQSPESLLQLKALKPGVIQILGVKTSRFLCQRPDGALYGSLHFDPEACSFRELLLEDGYNVYQSEAHGLPLHLPGQKSPHRDPAPRGPARFLPLPGLPPALPEPPGILAPQPPDVGSSDPLSLVGPSQGRSPSYC
# B8: Ala[Gln121, Leu168]FGF21 (protein)
# chain: AHPIPDSSPLLQFGGQVRQRYLYTDDAQQTEAHLEIREDGTVGGAADQSPESLLQLKALKPGVIQILGVKTSRFLCQRPDGALYGSLHFDPEACSFRELLLEDGYNVYQSEAHGLPLHLPGQKSPHRDPAPRGPARFLPLPGLPPALPEPPGILAPQPPDVGSSDPLSLVGPSQGRSPSYAS
# modifications: N-terminal Ala
# B9: S{Beta-181}-[2-[2-[[2-[2-[2-[[2-[2-[2-[[(4S)-4-carboxy-4-(17-carboxyheptadecanoyl-amino)butanoyl]amino]ethoxy]ethoxy]acetyl]amino]ethoxy]ethoxy]acetyl]amino]-ethylamino]-2-oxoethyl]-Met[Cys181]FGF21 (protein)
# chain: MHPIPDSSPLLQFGGQVRQRYLYTDDAQQTEAHLEIREDGTVGGAADQSPESLLQLKALKPGVIQILGVKTSRFLCQRPDGALYGSLHFDPEACSFRELLLEDGYNVYQSEAHGLPLHLPGNKSPHRDPAPRGPARFLPLPGLPPALPEPPGILAPQPPDVGSSDPLSMVGPSQGRSPSYAC
# Tests used:
# 3T3-L1 adipocytes = 3T3-L1 adipocytes (Mus musculus, UniProt P16092+Q99N32); experiment: Glucose uptake in 3T3-L1 adipocytes; assay type: cell-based; settings: stimulated 20 hours, 3H-deoxy-glucose
# Experimental: The C-terminal modified analogues were tested for their ability to increase glucose uptake in 3T3-L1 mouse adipocytes. The following assay was used for determining the biological activity, or potency, of FGF21 analogues and derivatives of the invention.
# The in vitro potency may also be determined in an assay with mouse 3T3-L1 adipocytes by testing the FGF21 analogues and derivatives for their ability to increase glucose uptake into adipocytes. Differentiated 3T3-L1 adipocytes endogenously express FGFR1c and BKL. The 3T3-L1 cells are unresponsive to FGF21 until after differentiated as differentiation lead to expression of the co-receptor BKL. Activation of the FGFR1 receptor/BKL complex increase the expression of glucose transporter 1 (GLUT1) and therefore FGF21 agonists will lead to an increased amount of glucose taken into the adipocytes in a dose responsive manner.
# Mouse 3T3-L1 fibroblasts (e.g. available from ATCC, catalogue no. CL-173) were maintained in basal medium (DMEM (4500 mg/I Glucose) with 10% Fetal Bovine Serum (FBS) and 1% Penicillin/Streptomycin). The cells are not allowed to reach confluence and should be passed (transferred to new vials) before reaching approx. 60% of confluency (by visual inspection).
# For the glucose uptake assay, cells were 15.000 cells/well in a 96 well plate (BIOCOAT), and when they reached confluency (high density, with a view to have differentiated adipose cells made), the medium was changed from basal medium to basal medium containing Troglitazone, IBMX, Dexamethasone (commercially available from, e.g., Sigma) and human insulin (commercially available from, e.g., Novo Nordisk A/S).
# The cells were used 7-9, days after initiation of differentiation. The cells were stimulated with increasing concentrations (0-300 nM) of the FGF21 analogues or derivatives of the invention for 20 hours in basal medium. Before addition of 3H-deoxy-glucose (in what follows: the tracer) the cells were washed in warm (approximately 37° C.) assay buffer (PBS with 1 mM MgCl2 and 2 mM CaCl2), HEPES and 0.1% Human serum albumin) and the cells were incubated with the tracer for 1 hour. This incubation was terminated by washing twice in ice cold assay buffer. The cells were lysed with Triton X-100 and lysates transferred to a 96 wells plate, microscint-40 (commercially available from, e.g., Perkin Elmer) was added and amount of tracer counted in a TOP-counter (e.g. a Packard top-counter from Perkin Elmer). The EC50 and Emax of the FGF21 compound in question were calculated. The results which are shown in tables 4-5 below indicate the EC50 (potency) and Emax (efficacy) of the FGF21 analogues and derivatives, respectively.
# FGF receptor/BKL complex = experiment: FGF receptor potency in an Erk phosphorylation assay in HEK293 overexpressing human BKL; assay type: cell-based; settings: HEK293/BKL cells, pERK after 12 minutes
# Procedure, shortened: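 pERK after 12 min analogue exposure at 37° C. was quantified by AlphaScreen SureFire in lysates of beta-klotho-transfected HEK293 cells. Assay medium was DMEM with 0.02% Tween20, run both without albumin and with 0.1% final HSA to probe albumin binding. Cells were starved 2 h in basal medium first. Absolute EC50 reported.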
# [1] = Pharmacokinetic study in mice (i.v.); settings: terminal half-life, single intravenous dose of 20 mg/kg, lean C57bl mice
# Experimental: This was done in a pharmacokinetic (PK) study, where the terminal half-life of the analogue in question was determined. By terminal half-life is meant the time it takes to halve a certain plasma concentration in the terminal elimination phase.
# The pharmacokinetic profile of FGF21 analogues was tested in normal lean C57b1 mice, n =2-3 (approximately 30 grams). FGF21 compounds were dosed as a single intravenous dose of 20 mg/kg (approximately 5 ml/kg).
# The plasma levels of the FGF21 compounds were determined using Fibroblast Growth Factor-21 Human ELISA (available from BioVendor, catalogue no. RD191108200R). The PC based software, WnNonLin version 6.3 from Pharsight Corportion, Cary N.C., was used for the pharmacokinetic calculation.
# [2] = Body weight reduction in lean mice; assay type: in vivo, lean C57BL mice; settings: s.c. 1 mg/kg BID for 7 days, change from baseline day 1 to 7
# Experimental: In order to determine the in vivo potency of the FGF21 derivatives the effect on body weight was studied in lean C57BL mice after subcutaneous (s.c.) administration. It has previously been shown that the weight loss induced by FGF21 in lean mice is predictive of the effect in obese mice and therefore lean mice are considered a good screening model.
# The compounds were administered s.c. 1 mg/kg either once (QD) or twice (BID) daily in 10 mM phosphate, 2% (w/vol) glycerol, 500ppm (=0.05%) polysorbate 80, pH=8.15, (2 ml/kg) for 7 days (n=7-8). The respective vehicle treated groups (control) were treated with 10 mM phosphate, 2% (w/vol) glycerol, 500ppm (=0.05%) polysorbate 80, pH=8.15, (2 ml/kg) s.c. twice daily for 7 days (n=6-8). Body weight was measured before dosing and again after 7 days treatment.
# [3] = Pharmacokinetic study in mini pigs (i.v.); settings: terminal half-life, female Gottingen mini pigs
# Experimental: The purpose of this study was to determine the protraction in vivo of the FGF21 derivatives after i.v. administration to mini pigs and mice, i.e. the prolongation of their time in the body and thereby their time of action. This was done in a pharmacokinetic (PK) study, where the terminal half-life of the analogue in question was determined. By terminal half-life is meant the time it takes to halve a certain plasma concentration in the terminal elimination phase.
# Female Gottingen mini pigs were obtained from Ellegaard Gottingen Minipigs (Dalmose, Denmark) approximately 7-14 months of age and weighing approximately 16-35 kg were used in the studies. The mini pigs were housed either individually (pigs with permanent catheters) or in a group and fed restrictedly once or twice daily with SDS mini pig diet (Special Diets Services, Essex, UK).
# After at least 2 weeks of acclimatisation two permanent central venous catheters were implanted in vena cava caudalis or cranialis in each animal. The animals were allowed 1 week recovery after the surgery, and were then used for repeated pharmacokinetic studies with a suitable wash-out period between successive dosing.
# Blood samples (for example 0.8 ml) were collected in EDTA (8 mM) coated tubes and then centrifuged at 4° C. and 1942G for 10 minutes. Blood samples were collected to adequately cover the full plasma concentration-time profile of the API. In example blood samples were collected at t=predose, 0.0833, 0.25, 0.5, 0.75, 1, 1.5, 2, 3, 4, 6, 8, 10, 24, 30, 48, 72, 96, 120, 144, 168, 192, 216, 240, 264 hours after dose.
# Plasma was pipetted into Micronic tubes on dry ice, and kept at −20° C. until analysed for plasma concentration of the respective FGF-1 analogue using ELISA. Individual plasma concentration-time profiles were analyzed by a non-compartmental pharmacokinetic method in Phoenix v. 6.3 (Pharsight Inc., Mountain View, Calif., USA), or other relevant software for PK analysis, and the resulting terminal half-lives (harmonic mean) determined.
# [4] = presence of 0.1% HSA, read-out: EC50 (0.1% HSA)
# Chain of FGF receptor/BKL complex (Q86Z14 whole entry, one chain of several): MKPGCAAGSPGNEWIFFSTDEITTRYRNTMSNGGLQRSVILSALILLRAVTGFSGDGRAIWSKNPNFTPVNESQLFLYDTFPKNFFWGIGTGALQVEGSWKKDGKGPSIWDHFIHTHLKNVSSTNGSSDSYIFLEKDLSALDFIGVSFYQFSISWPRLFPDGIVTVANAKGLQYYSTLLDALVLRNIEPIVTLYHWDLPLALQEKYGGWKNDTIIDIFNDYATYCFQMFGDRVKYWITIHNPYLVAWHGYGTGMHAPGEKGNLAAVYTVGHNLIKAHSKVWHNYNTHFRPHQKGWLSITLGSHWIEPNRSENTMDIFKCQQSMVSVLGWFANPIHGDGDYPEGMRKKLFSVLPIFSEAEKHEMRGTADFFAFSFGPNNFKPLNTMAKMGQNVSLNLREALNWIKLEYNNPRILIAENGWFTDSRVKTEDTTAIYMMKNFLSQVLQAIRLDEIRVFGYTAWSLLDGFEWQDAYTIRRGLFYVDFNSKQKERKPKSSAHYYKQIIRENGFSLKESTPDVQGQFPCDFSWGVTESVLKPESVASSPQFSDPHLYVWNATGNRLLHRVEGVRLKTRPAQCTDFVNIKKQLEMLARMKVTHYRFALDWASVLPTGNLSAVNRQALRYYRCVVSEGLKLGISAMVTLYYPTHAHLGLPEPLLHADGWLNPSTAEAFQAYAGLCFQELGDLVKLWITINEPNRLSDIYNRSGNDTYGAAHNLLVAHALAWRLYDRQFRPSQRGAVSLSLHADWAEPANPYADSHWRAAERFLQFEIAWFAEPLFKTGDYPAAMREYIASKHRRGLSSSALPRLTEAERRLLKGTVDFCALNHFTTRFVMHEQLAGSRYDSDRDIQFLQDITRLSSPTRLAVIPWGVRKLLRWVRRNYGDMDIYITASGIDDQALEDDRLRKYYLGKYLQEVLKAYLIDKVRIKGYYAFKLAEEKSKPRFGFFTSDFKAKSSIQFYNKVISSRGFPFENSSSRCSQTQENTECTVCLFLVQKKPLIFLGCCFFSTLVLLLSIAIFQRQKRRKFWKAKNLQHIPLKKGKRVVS
# Chain of 3T3-L1 adipocytes (Q99N32 whole entry): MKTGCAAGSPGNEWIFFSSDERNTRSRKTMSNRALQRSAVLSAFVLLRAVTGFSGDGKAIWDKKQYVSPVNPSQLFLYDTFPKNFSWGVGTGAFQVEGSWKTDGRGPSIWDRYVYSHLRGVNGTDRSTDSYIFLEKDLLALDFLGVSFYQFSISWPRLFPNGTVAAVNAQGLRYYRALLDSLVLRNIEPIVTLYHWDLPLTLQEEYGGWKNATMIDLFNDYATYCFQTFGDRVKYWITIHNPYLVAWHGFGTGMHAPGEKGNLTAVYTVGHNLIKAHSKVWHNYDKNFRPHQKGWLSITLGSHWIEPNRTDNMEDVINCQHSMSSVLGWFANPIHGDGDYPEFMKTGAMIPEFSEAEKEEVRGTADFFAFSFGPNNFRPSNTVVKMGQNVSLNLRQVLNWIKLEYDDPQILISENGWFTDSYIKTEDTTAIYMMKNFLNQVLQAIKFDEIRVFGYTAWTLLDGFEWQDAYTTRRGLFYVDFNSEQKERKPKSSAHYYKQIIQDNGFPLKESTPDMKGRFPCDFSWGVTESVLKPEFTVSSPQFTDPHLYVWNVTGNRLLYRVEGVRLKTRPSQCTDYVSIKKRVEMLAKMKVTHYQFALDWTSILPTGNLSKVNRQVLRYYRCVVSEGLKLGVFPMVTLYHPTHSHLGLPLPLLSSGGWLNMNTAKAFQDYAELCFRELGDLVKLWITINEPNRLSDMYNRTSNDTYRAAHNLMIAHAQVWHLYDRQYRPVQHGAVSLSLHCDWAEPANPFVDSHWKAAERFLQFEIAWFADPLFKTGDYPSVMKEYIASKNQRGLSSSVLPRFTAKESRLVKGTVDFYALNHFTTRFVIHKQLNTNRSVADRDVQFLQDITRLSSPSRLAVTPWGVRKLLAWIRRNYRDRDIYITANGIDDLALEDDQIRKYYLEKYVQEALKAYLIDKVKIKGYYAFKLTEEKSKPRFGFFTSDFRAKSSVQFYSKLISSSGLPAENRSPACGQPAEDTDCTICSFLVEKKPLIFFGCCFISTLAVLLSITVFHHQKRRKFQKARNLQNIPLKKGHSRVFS
# Chain of 3T3-L1 adipocytes (P16092 22-822): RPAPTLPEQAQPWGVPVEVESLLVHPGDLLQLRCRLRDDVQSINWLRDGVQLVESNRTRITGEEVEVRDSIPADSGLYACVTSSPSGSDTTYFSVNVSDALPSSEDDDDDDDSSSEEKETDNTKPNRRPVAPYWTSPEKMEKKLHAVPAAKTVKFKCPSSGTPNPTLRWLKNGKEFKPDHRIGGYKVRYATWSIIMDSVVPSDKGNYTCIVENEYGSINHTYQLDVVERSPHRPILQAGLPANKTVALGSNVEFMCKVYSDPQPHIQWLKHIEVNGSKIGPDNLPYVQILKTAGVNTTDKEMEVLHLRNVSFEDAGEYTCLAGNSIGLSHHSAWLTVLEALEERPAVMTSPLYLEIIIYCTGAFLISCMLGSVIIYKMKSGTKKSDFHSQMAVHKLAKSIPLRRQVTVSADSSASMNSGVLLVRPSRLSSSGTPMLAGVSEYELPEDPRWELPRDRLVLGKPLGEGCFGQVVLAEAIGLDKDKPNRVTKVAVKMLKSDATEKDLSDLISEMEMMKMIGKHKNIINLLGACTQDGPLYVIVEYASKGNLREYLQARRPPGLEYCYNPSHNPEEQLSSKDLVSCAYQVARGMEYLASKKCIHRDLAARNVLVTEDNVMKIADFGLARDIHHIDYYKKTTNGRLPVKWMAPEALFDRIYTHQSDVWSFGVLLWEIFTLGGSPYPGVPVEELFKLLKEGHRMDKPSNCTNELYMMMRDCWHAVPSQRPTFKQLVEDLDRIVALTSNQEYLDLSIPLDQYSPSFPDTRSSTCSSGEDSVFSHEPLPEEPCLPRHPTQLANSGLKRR
Molecule,EC50 (3T3-L1 adipocytes),Glucose uptake Emax (3T3-L1 adipocytes),"EC50 (FGF receptor/BKL complex; absence of HSA, read-out: EC50)",EC50 (FGF receptor/BKL complex; [4]),Half-life mice [1],Mean Δ body weight (%) [2],Half-life mini pigs [3]
B1,107 nM,54%,107 nM,134 nM,,,
B2,2.7 nM,87%,7 nM,4 nM,1 h,−2.04%,
B3,24 nM,53%,5 nM,133 nM,,,
B4,,,154 nM,137 nM,1 h,0.04%,
B5,56 nM,73%,42 nM,170 nM,14 h,,85 h
B6,410 nM,57%,58 nM,434 nM,19 h,,
B7,8 nM,71%,8 nM,20 nM,,,
B8,3.1 nM,85%,2 nM,,,−1.98** %,
B9,,,,,12 h,,
